From publication PMC3985891 (Biochemistry, 2014) come the findings set out here.

The series concerns the molecule itself. Briefly: SEC-MALS. Background: In gel filtration, larger molecules generally elute earlier.

For orientation: stoichiometry N means a count of units in the complex or per binding partner.

B1: MVP-s (codon-optimized synthetic MVP, M. jannaschii voltage-gated protein), N-terminal His tag, from pET15b (natural protein, Methanococcus jannaschii, UniProt Q57603 1-209, looked up)
chain: MNLKDRRLKKIMEVLSLIFTFEIVASFILSTYNPPYQDLLIKLDYISIMFFTFEFIYNFYYVEDKAKFFKDIYNIVDAIVVIAFLLYSLQVFYSKAFLGLRVINLLRILVLLRIIKLRKLEENQALINFLTLLTICFIASCLIWIVESGVNPAINNFFDAFYFTTISITTVGYGDITPKTDAGKLIIIFSVLFFISGLITSLQKALKGD
As for B1, the “stoichiometry N” value came out at 4.
